Laboratory results reported in paper PMC9426534, “Interactions of Bacterial Toxin CNF1 and Host JAK1/2 Driven by Liquid-Liquid Phase Separation Enhance Macrophage Polarization” (mBio, 2022).

B1: FLAG-CNF1 truncation mutant 190-1014 (C1) (domain or fragment)
chain: RSDNISLLFFDIYGYYASDIFVAKNNDKVMLFIPGAKKPFLFKKNIADLRLTLKELIKDSDKQQLLSQHFSLYSRQDGVSYAGVNSVLHAIENDGNFNESYFLYSNKTLSNKDVFDAIAISVKKRSFSDGDIVIKSNSEAQRDYALTILQTILSMTPIFDIVVPEVSVPLGLGIITSSMGISFDQLINGDTYEERRSAIPGLATNAVLLGLSFAIPLLISKAGINQEVLSSVINNEGRTLNETNIDIFLKEYGIAEDSISSTNLLDVKLKSSGQHVNIVKLSDEDNQIVAVKGSSLSGIYYEVDIETGYEILSRRIYRTEYNNEILWTRGGGLKGGQPFDFESLNIPVFFKDEPYSAVTGSPLSFINDDSSLLYPDTNPKLPQPTSEMDIVNYVKGSGSFGDRFVTLMRGATEEEAWNIASYHTAGGSTEELHEILLGQGPQSSLGFTEYTSNVNSADAASRRHFLVVIKVHVKYITNNNVSYVNHWAIPDEAPVEVLAVVDRRFNFPEPSTPPDISTIRKLLSLRYFKESIESTSKSNFQKLSRGNIDVLKGRGSISSTRQRAIYPYFEAANADEQQPLFFYIKKDRFDNHGYDQYFYDNTVGLNGIPTLNTYTGEIPSDSSSLGSTYWKKYNLTNETSIIRVSNSARGANGIKIALEEVQEGKPVIITSGNLSGCTTIVARKEGYIYKVHTGTTKSLAGFTSTTGVKKAVEVLELLTKEPIPRVEGIMSNDFLVDYLSENFEDSLITYSSSEKKPDSQITIIRDNVSVFPYFLDNIPEHGFGTSATVLVRVDGNVVVRSLSESYSLNADASEISVLKVFSKKF
notes: source: recombinant, purified
B2: MYC-JAK1 truncation mutant 1-855 (domain or fragment)
chain: MQYLNIKEDCNAMAFCAKMRSSKKTEVNLEAPEPGVEVIFYLSDREPLRLGSGEYTAEELCIRAAQACRISPLCHNLFALYDENTKLWYAPNRTITVDDKMSLRLHYRMRFYFTNWHGTNDNEQSVWRHSPKKQKNGYEKKKIPDATPLLDASSLEYLFAQGQYDLVKCLAPIRDPKTEQDGHDIENECLGMAVLAISHYAMMKKMQLPELPKDISYKRYIPETLNKSIRQRNLLTRMRINNVFKDFLKEFNNKTICDSSVSTHDLKVKYLATLETLTKHYGAEIFETSMLLISSENEMNWFHSNDGGNVLYYEVMVTGNLGIQWRHKPNVVSVEKEKNKLKRKKLENKHKKDEEKNKIREEWNNFSYFPEITHIVIKESVVSINKQDNKKMELKLSSHEEALSFVSLVDGYFRLTADAHHYLCTDVAPPLIVHNIQNGCHGPICTEYAINKLRQEGSEEGMYVLRWSCTDFDNILMTVTCFEKSEQVQGAQKQFKNFQIEVQKGRYSLHGSDRSFPSLGDLMSHLKKQILRTDNISFMLKRCCQPKPREISNLLVATKKAQEWQPVYPMSQLSFDRILKKDLVQGEHLGRGTRTHIYSGTLMDYKDDEGTSEEKKIKVILKVLDPSHRDISLAFFEAASMMRQVSHKHIVYLYGVCVRDVENIMVEEFVEGGPLDLFMHRKSDVLTTPWKFKVAKQLASALSYLEDKDLVHGNVCTKNLLLAREGIDSECGPFIKLSDPGIPITVLSRQECIERIPWIAPECVEDSKNLSVAADKWSFGTTLWEICYNGEIPLKDKTLIEKERFYESRCRPVTPSCKELADLMTRCMNYDPNQRPFFRAIMRDINKLEEQNPDI
notes: source: recombinant, purified
B3: FLAG-CNF1 truncation mutant 1-720 (N2) (domain or fragment)
chain: MGNQWQQKYLLEYNELVSNFPSPERVVSDYIKNCFKTDLPWFSRIDPDNAYFICFSQNRSNSRSYTGWDHLGKYKTEVLTLTQAALINIGYRFDVFDDANSSTGIYKTKSADVFNEENEEKMLPSEYLHFLQKCDFAGVYGKTLSDYWSKYYDKFKLLLKNYYISSALYLYKNGELDEREYNFSMNALNRSDNISLLFFDIYGYYASDIFVAKNNDKVMLFIPGAKKPFLFKKNIADLRLTLKELIKDSDKQQLLSQHFSLYSRQDGVSYAGVNSVLHAIENDGNFNESYFLYSNKTLSNKDVFDAIAISVKKRSFSDGDIVIKSNSEAQRDYALTILQTILSMTPIFDIVVPEVSVPLGLGIITSSMGISFDQLINGDTYEERRSAIPGLATNAVLLGLSFAIPLLISKAGINQEVLSSVINNEGRTLNETNIDIFLKEYGIAEDSISSTNLLDVKLKSSGQHVNIVKLSDEDNQIVAVKGSSLSGIYYEVDIETGYEILSRRIYRTEYNNEILWTRGGGLKGGQPFDFESLNIPVFFKDEPYSAVTGSPLSFINDDSSLLYPDTNPKLPQPTSEMDIVNYVKGSGSFGDRFVTLMRGATEEEAWNIASYHTAGGSTEELHEILLGQGPQSSLGFTEYTSNVNSADAASRRHFLVVIKVHVKYITNNNVSYVNHWAIPDEAPVEVLAVVDRRFNFPEPSTPPDISTIRKLLSLRYFKES
notes: source: recombinant, purified
B4: MYC-JAK1 truncation mutant 1-544 (domain or fragment)
chain: MQYLNIKEDCNAMAFCAKMRSSKKTEVNLEAPEPGVEVIFYLSDREPLRLGSGEYTAEELCIRAAQACRISPLCHNLFALYDENTKLWYAPNRTITVDDKMSLRLHYRMRFYFTNWHGTNDNEQSVWRHSPKKQKNGYEKKKIPDATPLLDASSLEYLFAQGQYDLVKCLAPIRDPKTEQDGHDIENECLGMAVLAISHYAMMKKMQLPELPKDISYKRYIPETLNKSIRQRNLLTRMRINNVFKDFLKEFNNKTICDSSVSTHDLKVKYLATLETLTKHYGAEIFETSMLLISSENEMNWFHSNDGGNVLYYEVMVTGNLGIQWRHKPNVVSVEKEKNKLKRKKLENKHKKDEEKNKIREEWNNFSYFPEITHIVIKESVVSINKQDNKKMELKLSSHEEALSFVSLVDGYFRLTADAHHYLCTDVAPPLIVHNIQNGCHGPICTEYAINKLRQEGSEEGMYVLRWSCTDFDNILMTVTCFEKSEQVQGAQKQFKNFQIEVQKGRYSLHGSDRSFPSLGDLMSHLKKQILRTDNISFMLKRCC
notes: source: recombinant, purified

Assays:
[1] = target: T1, MYC-tagged JAK1, full length (UniProt P23458 1-1154); experiment: co-IP; in vitro, purified proteins; truncated FLAG-tagged CNF1 proteins precipitated, MYC-tagged JAK1 detected and normalised to the FLAG-CNF1 in the IP; settings: both partners purified
T1 construct: also called MYC-JAK1; MYC-tagged full-length JAK1; source: HeLa, transfected, in lysate

[2] = target: T2, Cytotoxic necrotizing factor 1 (CNF1), recombinant FLAG-tagged, full length (uropathogenic Escherichia coli (UPEC), UniProt Q47106 1-1014); experiment: co-IP; in vitro, purified proteins; truncated MYC-tagged JAK1 proteins precipitated, FLAG-tagged CNF1 detected and normalised to the MYC-JAK1 in the IP; settings: both partners purified
T2 construct: also called FLAG-CNF1; FLAG-tagged full-length CNF1; source: recombinant, purified (additionally by size exclusion chromatography)

| Binder | binding result [1] | binding result [2] |
| --- | --- | --- |
| B1 | binds |  |
| B2 |  | binds |
| B3 | binds |  |
| B4 |  | binds |
